Reference: the supplement of paper PMC7877785
± gives the uncertainty stated by the source.

Test: self-splicing fitness, log relative to wild type (ln ratio); higher = more splicing; Tetrahymena group I intron in knt gene, E. coli kanamycin selection, DiMSum; sequences stand for … in CUCUCU…GGAGGGAAAAGUUAUCAGGCAUGCACCUGGUAGCUAGUCUUUAAACCAAUAGAUUGCAUCGGUUUAAAAGGCAAGACCGUCAAAUUGCGGGAAAGGGGUCAACAGCCGUUCAGUACCAAGUCUCAGGGGAAACUUUGAGAUGGCCUUGCAAAGGGUAUGGUAAUAAGCUGACGGACAUGGUCCUAACCACGCAGCCAAGUCCUAAGUCAACAGAUCUUCUGUUGAUAUGGAUGCAGUUCACAGACUAAAUGUCGGUCGGGGAAGAUGUAUUCUUCUCAUAAGAUAUAGUCGGACCUCUCCUUAAUGGGAGCUAGCGGAUGAAGUGAUGCAACACUGGAGCCGCUGGGAACUAAUUUGUAUGCGAAAGUAUAUUGAUUAGUUUUGGAGUACUCGUGGUCG
Procedure, shortened: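 Pooled colonies went to amplicon sequencing on an Illumina HiSeq 2500 after six replicate transformations. The plates were LB agar with 100 μg/mL carbenicillin, 50 μM IPTG and 0.2% rhamnose, with or without 25 μg/mL kanamycin, incubated overnight at 37°C or 30°C. The E. coli BL21(DE3) library had all eight P1ex-region intron nucleotides randomised, the intron placed in the knt kanamycin-resistance gene on pET-22b(+). DiMSum fitness is the error-weighted combination of replicate fold changes, kanamycin against none, normalised to wild type.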

Sequence	self-splicing fitness (ln) (30 °C)	self-splicing fitness (ln) (37 °C)
UAUAAGCAAUAUUACGUAUG	-1.31 ± 0.091	-0.577 ± 0.12
ACAUAGCAAUAUUACGAAUA	-2.06 ± 0.28	-0.539 ± 0.2
GGCAAGCAAUAUUACGGUAA	-1.28 ± 0.097	0.108 ± 0.094
UCAAAGCAAUAUUACGUAGA	-1.47 ± 0.082	-0.85 ± 0.098
UAUGAGCAAUAUUACGAUAG	-2.31 ± 0.35	-0.767 ± 0.38
CAUUAGCAAUAUUACGACAC	-2.3 ± 0.2	-1.89 ± 0.23
UAAUAGCAAUAUUACGCCAG	-1.07 ± 0.2	-1.2 ± 0.32
ACAAAGCAAUAUUACGGGUU	-2.54 ± 0.087	-1.23 ± 0.09
ACCUAGCAAUAUUACGUAUG	-2.71 ± 0.097	-1.61 ± 0.099
UCCGAGCAAUAUUACGGCUG	-2.83 ± 0.19	-1.6 ± 0.29
UGUAAGCAAUAUUACGAAGA	–	-0.905 ± 0.37
AGACAGCAAUAUUACGACGA	-1.29 ± 0.13	-0.547 ± 0.12
GAGCAGCAAUAUUACGCUCU	-3.46 ± 0.28	–
UAUCAGCAAUAUUACGUCGC	–	-2.03 ± 0.33
GACUAGCAAUAUUACGGAAA	-1.53 ± 0.14	-0.989 ± 0.14
GUUGAGCAAUAUUACGGAGU	-3.52 ± 0.29	-2.7 ± 0.29
AUAAAGCAAUAUUACGAGUG	-2.03 ± 0.1	-1.16 ± 0.12
CGCCAGCAAUAUUACGGACU	-0.845 ± 0.066	0.157 ± 0.091
UUCCAGCAAUAUUACGCUGU	-3.96 ± 0.24	-2.42 ± 0.22
AUAGAGCAAUAUUACGGACU	-1.15 ± 0.13	-1.65 ± 0.23
CUGCAGCAAUAUUACGACAU	-1.04 ± 0.012	-0.363 ± 0.032
GGCUAGCAAUAUUACGAUCA	-0.733 ± 0.093	-0.246 ± 0.088
AGUUAGCAAUAUUACGGUUG	-3.09 ± 0.24	-1.99 ± 0.22
AAAGAGCAAUAUUACGUCCU	-1.93 ± 0.13	-0.831 ± 0.12
CAUCAGCAAUAUUACGCCUU	-1.92 ± 0.12	-0.379 ± 0.12
UUCCAGCAAUAUUACGCAGC	-3.77 ± 0.33	-2.31 ± 0.35
GGUCAGCAAUAUUACGAACA	-0.818 ± 0.14	-0.749 ± 0.17

Sequence	self-splicing fitness (ln) (30 °C)	self-splicing fitness (ln) (37 °C)
UUGAAGCAAUAUUACGAGAG	-1.5 ± 0.12	-0.926 ± 0.14
UGCAAGCAAUAUUACGUCAU	-3.29 ± 0.13	-2.17 ± 0.14
AGAGAGCAAUAUUACGUACU	-1.2 ± 0.13	-1 ± 0.15
UAUUAGCAAUAUUACGCCUA	-0.107 ± 0.15	-0.038 ± 0.14
GUAUAGCAAUAUUACGAACU	-1.75 ± 0.23	0.477 ± 0.24
CUAAAGCAAUAUUACGCGUU	-3.08 ± 0.13	-2.67 ± 0.27
UAGAAGCAAUAUUACGUCGG	-0.813 ± 0.073	-0.306 ± 0.091
GGGGAGCAAUAUUACGGUCC	-1.26 ± 0.46	–
CGAAAGCAAUAUUACGUCGU	-3.33 ± 0.14	-2.36 ± 0.18
ACAAAGCAAUAUUACGACGA	-0.436 ± 0.063	-0.207 ± 0.062
GCUAAGCAAUAUUACGUUUG	-2.16 ± 0.09	-0.954 ± 0.12
UGUGAGCAAUAUUACGUUGU	-3.15 ± 0.25	-3.13 ± 0.47
AAGUAGCAAUAUUACGCUUA	-0.794 ± 0.14	-0.587 ± 0.14
ACCGAGCAAUAUUACGCUAG	-2.62 ± 0.22	-1.44 ± 0.21
UUGUAGCAAUAUUACGGCGA	0.174 ± 0.1	0.227 ± 0.14
CUUCAGCAAUAUUACGUGUA	-3.11 ± 0.13	-3.22 ± 0.21
CCGGAGCAAUAUUACGGAGG	–	-2.35 ± 0.25
CAUGAGCAAUAUUACGACUG	-1.78 ± 0.13	-0.743 ± 0.18
AUGAAGCAAUAUUACGCACG	-1.09 ± 0.1	0.541 ± 0.14
UCGAAGCAAUAUUACGCUGC	-3.55 ± 0.43	-1.49 ± 0.4
CCUAAGCAAUAUUACGGAGG	-4.42 ± 0.29	-2.71 ± 0.31
CCUGAGCAAUAUUACGUCGG	-4.36 ± 0.36	-2.47 ± 0.23
CAGGAGCAAUAUUACGCGGU	–	-3.29 ± 0.47
UGGGAGCAAUAUUACGGACU	-1.17 ± 0.36	-2.35 ± 0.46
UUAAAGCAAUAUUACGUGUA	-0.993 ± 0.066	0.0738 ± 0.08
GUGUAGCAAUAUUACGAACU	-1.57 ± 0.25	-0.299 ± 0.2
AGAGAGCAAUAUUACGAGUC	–	-2.23 ± 0.29

Sequence	self-splicing fitness (ln) (30 °C)	self-splicing fitness (ln) (37 °C)
UAAAAGCAAUAUUACGAGGG	-3.83 ± 0.33	-2.47 ± 0.3
GGCCAGCAAUAUUACGCACA	-0.344 ± 0.16	-0.177 ± 0.17
UAUCAGCAAUAUUACGGCGG	-0.918 ± 0.086	0.373 ± 0.093
AUCCAGCAAUAUUACGAGUU	-1.33 ± 0.063	-0.782 ± 0.077
UGGAAGCAAUAUUACGUCCU	-0.91 ± 0.2	-0.584 ± 0.21
CUACAGCAAUAUUACGGGCG	-1.2 ± 0.065	-0.108 ± 0.092
UUACAGCAAUAUUACGUUCU	-1.6 ± 0.13	-1.01 ± 0.11
AAUCAGCAAUAUUACGUGAA	-0.152 ± 0.065	0.257 ± 0.094
GCGGAGCAAUAUUACGCCUU	–	-2.17 ± 0.49
CUCAAGCAAUAUUACGCCUA	-2.82 ± 0.27	-2.16 ± 0.28
CGGAAGCAAUAUUACGGUGA	-1.64 ± 0.16	-2.07 ± 0.22
UUGGAGCAAUAUUACGCCCG	-1.94 ± 0.45	–
UAGCAGCAAUAUUACGCUGU	-3.59 ± 0.25	-3.42 ± 0.35
GGAUAGCAAUAUUACGUGCG	-0.974 ± 0.094	-0.046 ± 0.12
AACAAGCAAUAUUACGACAU	-0.261 ± 0.01	0.0604 ± 0.032
CUGGAGCAAUAUUACGGGAC	0.251 ± 0.35	-1.08 ± 0.41
GACCAGCAAUAUUACGACCG	-0.572 ± 0.11	-0.318 ± 0.17
UCCAAGCAAUAUUACGGCUC	-3.84 ± 0.37	–
AUGGAGCAAUAUUACGGACG	-2.44 ± 0.32	-0.988 ± 0.3
UAGCAGCAAUAUUACGUCGC	-4.47 ± 0.24	-2.73 ± 0.22
GAUGAGCAAUAUUACGGACA	-2.22 ± 0.45	-3.08 ± 0.47
UUGGAGCAAUAUUACGCACG	-1.33 ± 0.17	-1.92 ± 0.29
UAGGAGCAAUAUUACGGGUU	-4.52 ± 0.42	-2.56 ± 0.27
CAAAAGCAAUAUUACGGUUU	-2.93 ± 0.11	-1.21 ± 0.1
AUUGAGCAAUAUUACGUAAU	-1.68 ± 0.13	-0.364 ± 0.19
